Target: DeCLIC (Desulfofustis deltaproteobacterium)
Assay: cryo-EM structure

stoichiometry N: 5
Substance: DeCLIC (natural protein)
